94 variants from the supplement of paper PMC10567573 can be followed below.

To fix the notation:
B1: CHMP4C (parent)
chain: TNIRLPNVPSSSLPAQPNRKPGMS
B2: FAM164A (parent)
chain: YDPDYIQCPYCQRRFNENAADRHI
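Also: lentivirally expressed fusions sorted by FACS into six bins by GFP to DsRed ratio, PSI derived from sequencing read proportions per bin multiplied by bin number.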

One data set covers variants of B1. Put plainly: protein stability index of a GFP-peptide fusion (GPS, HEK-293T) (PSI 1-6); higher = more stable. Particulars: c terminus: a fixed tail appended.
As to TFIRLPNVPSSSLPAQPNRKPGMS, the protein stability index was 3.43. Still for that read-out and setting: under TGIRLPNVPSSSLPAQPNRKPGMS stands 4.24; under THIRLPNVPSSSLPAQPNRKPGMS, 4.51. The same measure, in the same setting: under TCIRLPNVPSSSLPAQPNRKPGMS stands 3.87; under TMIRLPNVPSSSLPAQPNRKPGMS, 4.66; under TKIRLPNVPSSSLPAQPNRKPGMS, 4.24. For TTIRLPNVPSSSLPAQPNRKPGMS, the protein stability index was 4.59.

With TAIRLPNVPSSSLPAQPNRKPGMS, the protein stability index came to 4.67. Still for that read-out and setting: under TEIRLPNVPSSSLPAQPNRKPGMS stands 5.05; under TQIRLPNVPSSSLPAQPNRKPGMS, 4.27; under TWIRLPNVPSSSLPAQPNRKPGMS, 3.01. The same measure, in the same setting: under TYIRLPNVPSSSLPAQPNRKPGMS stands 3.51; under TVIRLPNVPSSSLPAQPNRKPGMS, 4.16; under TDIRLPNVPSSSLPAQPNRKPGMS, 4.77.

On to TSIRLPNVPSSSLPAQPNRKPGMS, for which the protein stability index came to 4.7. The same measure, in the same setting: as for TLIRLPNVPSSSLPAQPNRKPGMS, the figure is 3.44. On the same count and under the same terms, as for TIIRLPNVPSSSLPAQPNRKPGMS, the figure is 3.44.

In the case of TPIRLPNVPSSSLPAQPNRKPGMS, the protein stability index amounted to 5.25. Same read-out and setting: under TRIRLPNVPSSSLPAQPNRKPGMS stands 4.08; under TNMRLPNVPSSSLPAQPNRKPGMS, 4.76; under TNNRLPNVPSSSLPAQPNRKPGMS, 4.81. Still for that read-out and setting: as for TNRRLPNVPSSSLPAQPNRKPGMS, the figure is 4.41; as for TNHRLPNVPSSSLPAQPNRKPGMS, 4.62; as for TNSRLPNVPSSSLPAQPNRKPGMS, 4.71. The same measure, in the same setting: under TNVRLPNVPSSSLPAQPNRKPGMS stands 4.54; under TNTRLPNVPSSSLPAQPNRKPGMS, 4.82. In the case of TNCRLPNVPSSSLPAQPNRKPGMS, the protein stability index was determined as 4.55. Consider TNFRLPNVPSSSLPAQPNRKPGMS, for which the protein stability index is 4.2. The same measure, in the same setting: under TNDRLPNVPSSSLPAQPNRKPGMS stands 4.63. The same measure, in the same setting: under TNYRLPNVPSSSLPAQPNRKPGMS stands 4.33. With TNWRLPNVPSSSLPAQPNRKPGMS, the protein stability index is 4.13. Same read-out and setting: under TNKRLPNVPSSSLPAQPNRKPGMS stands 3.99. Same read-out and setting: under TNLRLPNVPSSSLPAQPNRKPGMS stands 4.26; under TNQRLPNVPSSSLPAQPNRKPGMS, 4.87. Same read-out and setting: under TNERLPNVPSSSLPAQPNRKPGMS stands 4.92. As for TNGRLPNVPSSSLPAQPNRKPGMS, the protein stability index came to 4.72. Regarding TNPRLPNVPSSSLPAQPNRKPGMS, the protein stability index came to 4.77.

For the variant TNARLPNVPSSSLPAQPNRKPGMS, the protein stability index turned out to be 4.73. Still for that read-out and setting: as for TNIALPNVPSSSLPAQPNRKPGMS, the figure is 4.79; as for TNIHLPNVPSSSLPAQPNRKPGMS, 4.06.

With TNIVLPNVPSSSLPAQPNRKPGMS, the protein stability index was found to be 4.35.

With TNIQLPNVPSSSLPAQPNRKPGMS, the protein stability index came to 4.19. Same read-out and setting: under TNIDLPNVPSSSLPAQPNRKPGMS stands 4.34; under TNIFLPNVPSSSLPAQPNRKPGMS, 4.18; under TNIELPNVPSSSLPAQPNRKPGMS, 4.68. With TNITLPNVPSSSLPAQPNRKPGMS, the protein stability index turned out to be 4.61. The same measure, in the same setting: as for TNIMLPNVPSSSLPAQPNRKPGMS, the figure is 4.51.

Take TNIILPNVPSSSLPAQPNRKPGMS: the protein stability index was 3.37. Still for that read-out and setting: under TNILLPNVPSSSLPAQPNRKPGMS stands 4.26; under TNISLPNVPSSSLPAQPNRKPGMS, 4.29. Same read-out and setting: under TNIPLPNVPSSSLPAQPNRKPGMS stands 4.73; under TNICLPNVPSSSLPAQPNRKPGMS, 4.77; under TNIGLPNVPSSSLPAQPNRKPGMS, 4.69. Still for that read-out and setting: under TNINLPNVPSSSLPAQPNRKPGMS stands 2.96. TNIKLPNVPSSSLPAQPNRKPGMS: the protein stability index came to 3.88. Same read-out and setting: under TNIWLPNVPSSSLPAQPNRKPGMS stands 2.96; under TNIYLPNVPSSSLPAQPNRKPGMS, 4.24; under SNIRLPNVPSSSLPAQPNRKPGMS, 4.4. The same measure, in the same setting: under CNIRLPNVPSSSLPAQPNRKPGMS stands 4.14; under MNIRLPNVPSSSLPAQPNRKPGMS, 4.17; under GNIRLPNVPSSSLPAQPNRKPGMS, 4.8.

On to INIRLPNVPSSSLPAQPNRKPGMS, for which the protein stability index came to 3.03.

RNIRLPNVPSSSLPAQPNRKPGMS: the protein stability index is 4.77. On the same count and under the same terms, as for ANIRLPNVPSSSLPAQPNRKPGMS, the figure is 4.63; as for WNIRLPNVPSSSLPAQPNRKPGMS, 3.62; as for KNIRLPNVPSSSLPAQPNRKPGMS, 4.55.

As for LNIRLPNVPSSSLPAQPNRKPGMS, the protein stability index was determined as 3.24. On the same count and under the same terms, under NNIRLPNVPSSSLPAQPNRKPGMS stands 4.82; under FNIRLPNVPSSSLPAQPNRKPGMS, 3.6. The same measure, in the same setting: under HNIRLPNVPSSSLPAQPNRKPGMS stands 4.56. Same read-out and setting: under DNIRLPNVPSSSLPAQPNRKPGMS stands 4.71; under PNIRLPNVPSSSLPAQPNRKPGMS, 4.8. With ENIRLPNVPSSSLPAQPNRKPGMS, the protein stability index came to 3.75. VNIRLPNVPSSSLPAQPNRKPGMS: the protein stability index was determined as 3.62. On the same count and under the same terms, as for YNIRLPNVPSSSLPAQPNRKPGMS, the figure is 3.71; as for QNIRLPNVPSSSLPAQPNRKPGMS, 4.75.

For TNIRGPNVPSSSLPAQPNRKPGMS, the protein stability index worked out at 5.1. On the same count and under the same terms, under TNIRAPNVPSSSLPAQPNRKPGMS stands 4.71.

Turning to TNIRFPNVPSSSLPAQPNRKPGMS, the protein stability index amounted to 4.38. On the same count and under the same terms, as for TNIRCPNVPSSSLPAQPNRKPGMS, the figure is 4.92; as for TNIRHPNVPSSSLPAQPNRKPGMS, 4.62. Still for that read-out and setting: as for TNIRKPNVPSSSLPAQPNRKPGMS, the figure is 4.71; as for TNIRIPNVPSSSLPAQPNRKPGMS, 4.61. Same read-out and setting: as for TNIREPNVPSSSLPAQPNRKPGMS, the figure is 4.46; as for TNIRDPNVPSSSLPAQPNRKPGMS, 5.05.

In the next data set the parent is B2. Described as above. Particulars: c terminus: a fixed tail appended.
With YDPDYIQCPYCQRRFNENAQDRHI, the protein stability index came to 3.82. Same read-out and setting: under YDPDYIQCPYCQRRFNENAIDRHI stands 4.37. With YDPDYIQCPYCQRRFNENAGDRHI, the protein stability index was found to be 3.85. Consider YDPDYIQCPYCQRRFNENAEDRHI, for which the protein stability index was found to be 4.34. With YDPDYIQCPYCQRRFNENAPDRHI, the protein stability index came out at 3.52. Same read-out and setting: as for YDPDYIQCPYCQRRFNENATDRHI, the figure is 3.93; as for YDPDYIQCPYCQRRFNENANDRHI, 4.49; as for YDPDYIQCPYCQRRFNENAYDRHI, 3.78. On the same count and under the same terms, as for YDPDYIQCPYCQRRFNENASDRHI, the figure is 4.
